The source of these data is the supplement of paper PMC11316812.

± gives the standard deviation of the averaged measurements.

One data set relates to hTERT-HMEC. The experiment in a line: percentage of EdU-negative (G0-arrested) nuclei per well, 72 h; higher = more G0 arrest. Conditions: reference: sequence is the full UniProt precursor, the tested protein was the secreted form or ectodomain.
In a further data set the test system is MCF7. Described as above. Conditions: reference: sequence is the full UniProt precursor, the tested protein was the secreted form or ectodomain.
[1] abbreviates: protein concentration 0.03125 µM.
Setting [2] is: protein concentration 0.3125 µM.
Setting [3] is: protein concentration 0.00775 µM.
[4] abbreviates: protein concentration 0.0775 µM.
[5] abbreviates: protein concentration 0.022665 µM.
[6] abbreviates: protein concentration 0.22665 µM.
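Note: secreted proteins added to cultured cells, EdU pulse at the end, nuclei found by Hoechst imaging, EdU status from nuclear versus surrounding ring intensity ratio, PBS as neutral control.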

As for “MRRLLLVTSLVVVLLWEAGAVPAPKVPIKMQVKHWPSEQDPEKAWGARVVEPPEKDDQLVVLFPVQKPKLLTTEEKPRGQGRGPILPGTKAWMETEDTLGHVLSPEPDHDSLYHPPPEEDQGEERPRLWVMPNHQVLLGPEEDQDHIYHPQ [Q96NZ9]”, the “percentage of EdU-negative” value is 4.69 ± 0.15% in the data set with hTERT-HMEC (protein concentration 0.013 µM), 5.48 ± 0.53% in the data set on hTERT-HMEC (protein concentration 0.13 µM), 23.14 ± 0.14% in the data set with MCF7 (protein concentration 0.013 µM) and 27.38 ± 0.25% with MCF7 (protein concentration 0.13 µM).
As to “MRRMWATQGLAVALALSVLPGSRALRPGDCEVCISYLGRFYQDLKDRDVTFSPATIENELIKFCREARGKENRLCYYIGATDDAATKIINEVSKPLAHHIPVEKICEKLKKKDSQICELKYDKQIDLSTVDLKKLRVKELKKILDDWGETCKGCAEKSDYIRKINELMPKYAPKAASARTDL”, the “percentage of EdU-negative” value in the data set with hTERT-HMEC (setting [1]) came to 5.21 ± 0.51%; in the data set with hTERT-HMEC (setting [2]), 6.6 ± 0.2%; with MCF7 (setting [1]), 25.9 ± 1.2%; in the data set with MCF7 (setting [2]), 24.8 ± 3.6%.
Take “MRRPAAVPLLLLLCFGSQRAKAATACGRPRMLNRMVGGQDTQEGEWPWQVSIQRNGSHFCGGSLIAEQWVLTAAHCFRNTSETSLYQVLLGARQLVQPGPHAMYARVRQVESNPLYQGTASSADVALVELEAPVPFTNYILPVCLPDPSVIFETGMNCWVTGWGSPSEEDLLPEPRILQKLAVPIIDTPKCNLLYSKDTEFGYQPKTIKNDMLCAGFEEGKKDACKGDSGGPLVCLVGQSWLQAGVISWGEGCARQNRPGVYIRVTAHHNWIHRIIPKLQFQPARLGGQK [Q9BQR3]”: the “percentage of EdU-negative” value with hTERT-HMEC (setting [3]) stood at 4.44 ± 0.22%; in the data set with hTERT-HMEC (setting [4]) it was 6.65 ± 0.73%; in the data set with MCF7 (setting [3]), 25.18 ± 0.16%; in the data set with MCF7 (setting [4]), 26.7 ± 2.6%.
As to “MRRRRAGGRTMVERASKFVLVVAGSVCFMLILYQYAGPGLSLGAPGGRAPPDDLDLFPTPDPHYEKKYYFPVRELERSLRFDMKGDDVIVFLHIQKTGGTTFGRHLVQNVRLEVPCDCRPGQKKCTCYRPNRRETWLFSRFSTGWSCGLHADWTELTNCVPGVLDRRDSAALRTPRKFYYITLLRDPVSRYLSEWRHVQRGATWKTSLHMCDGRTPTPEELPPCYEGTDWSGCTLQEFMDCPYNLANNRQVRMLADLSLVGCYNLSFIPEGKRAQLLLESAKKNLRGMAFFGLTEFQRKTQYLFERTFNLKFIRPFMQYNSTRAGGVEVDEDTIRRIEELNDLDMQLYDYAKDLFQQRYQYKRQLERREQRLRSREERLLHRAKEALPREDADEPGRVPTEDYMSHIIEKW”, the “percentage of EdU-negative” value in the data set on hTERT-HMEC (protein concentration 0.01 µM) was 5.25 ± 0.85%; with hTERT-HMEC (protein concentration 0.1 µM), 31.7 ± 5.8%; with MCF7 (protein concentration 0.01 µM) it was 25.6 ± 0.82%; in the data set with MCF7 (protein concentration 0.1 µM), 28.9 ± 4%.
Take “MRSAAVLALLLCAGQVTALPVNSPMNKGDTEVMKCIVEVISDTLSKPSPMPVSQECFETLRGDERILSILRHQNLLKELQDLALQGAKERAHQQKKHSGFEDELSEVLENQSSQAELKEAVEEPSSKDVMEKREDSKEAEKSGEATDGARPQALPEPMQESKAEGNNQAPGEEEEEEEEATNTHPPASLPSQKYPGPQAEGDSEGLSQGLVDREKGLSAEPGWQAKREEEEEEEEEAEAGEEAVPEEEGPTVVLNPHPSLGYKEIRKGESRSEALAVDGAGKPGAEEAQDPEGKGEQEHSQQKEEEEEMAVVPQGLFRGGKSGELEQEEERLSKEWEDSKRWSKMDQLAKELTAEKRLEGQEEEEDNRDSSMKLSFRARAYGFRGPGPQLRRGWRPSSREDSLEAGLPLQVRGYPEEKKEEEGSANRRPEDQELESLSAIEAELEKVAHQLQALRRG”: the “percentage of EdU-negative” value in the data set on hTERT-HMEC (setting [5]) came out at 4.31 ± 0.57%; in the data set with hTERT-HMEC (setting [1]) it was 5.57 ± 0.62%; in the data set with hTERT-HMEC (setting [6]) it was 7.26 ± 0.12%; with hTERT-HMEC (setting [2]), 5.39 ± 0.89%; in the data set with MCF7 (setting [5]), 24.2 ± 2.3%; in the data set on MCF7 (setting [1]), 26.2 ± 1.6%. The “percentage of EdU-negative” value was determined as 24.9 ± 1.5% in the data set on MCF7 (setting [6]) and 25.6 ± 1.5% in the data set on MCF7 (setting [2]).
